Test results: PMC7337898

System: HrrA (phosphorylated response regulator) (Corynebacterium glutamicum ATCC 13032)
Test: EMSA
Details: 20 mM Tris-HCl pH 7.5, 50 mM KCl, 10 mM MgCl2, 5% glycerol, 0.5 mM EDTA, 0.005% Triton X-100, 20 min, room temperature, 10 nM DNA with 5-1000 nM HrrA …

Substance	Kd (apparent Kd) [nM]	Kd (apparent Kd (text misprints 270 μM)) [nM]
PctaE	125	
PcydA (Pcyd)	350	
PhmuO	196	
PsigC/katA		271
